The nature of data set [1]: Infusion of peroxidase tracer protein into the cistern magna, distribution visualized by DAB reaction. It is filed as in vivo. The settings on record: infused into cistern magna of mouse, formalin fixing after 30 minutes; FIG. 12. The source says: In the case of the microperoxidase being not able to penetrate, a barrier corresponding to the blood brain barrier is judged to be present.
It has already discussed that the most of the inhibitory neuron progenitors were distributed to the proximity to the brain surface or the subventricular zone. In order to establish a technique for delivering Activin A to the proximity to the brain surface or the subventricular zone, a protein which can readily be detected was employed instead of Activin A itself in a monitoring experiment. The protein employed was a microperoxidase which was a peptide obtained by enzymatic degradation of cytochrome C and purification of a heme-containing moiety. A caudal part of a mouse cerebellum has a large subarachnoid cavity referred to as the cistern magna, into which the microperoxidase was infused, and after 30 minutes the formalin fixing was conducted and the enzyme distribution was visualized by a color development via DAB reaction (peroxidase reaction). It is defined that when the microperoxidase cannot permeate then a barrier corresponding to the blood brain barrier exists. […] It means that there was no barrier corresponding to BBB between the subarachnoid cavity and the brain parenchyma (the boundary is the pia matter) or between the ventricle and the brain parenchyma (the boundary is a ventricular zone). […]

The subject of data set [2] is inhibitory neuron progenitors in the brain. Description: In vivo infusion of Activin A solution into the brain of juvenile GAD67-GFP mouse, EdU labelling, histological observation. The settings on record: P3 GAD67-GFP mouse; 1 μl of 1 μg/ml Activin A solution, one side; EdU i.p. after 30 minutes; examined after 1 week; FIG. 11. Here is the method:
Thereafter, the animal was maintained for 1 week, anesthetized, fixed, and examined histologically.
Also in order to verify the in vivo effect of Activin A, an Activin A solution was injected directly into the brain of a 3-day old (P3) juvenile mouse. Thirty minutes after this addition, EdU was injected intraperitoneally. […] Then the subsequent issue is a method for delivering Activin A to the inhibitory neuron progenitors inside the brain. Such a method is preferably a method avoiding any damage to the brain, such as penetration of an injection needle.

Data set [3] deals with inhibitory neuron progenitors (GFP positive cells from GAD67-GFP P0 mouse cerebral cortex). Description: BrdU uptake into DNA of sorted GFP positive cells cultured in neural stem cell culture medium with or without Activin A. The data set is classed as cell-based. The settings on record: neural stem cell culture medium with (M+A) or without (M) Activin A at 20 ng/ml; FIG. 10. The protocol:
The cerebral cortex of a GAD67-GFP P0 mouse was taken out, treated with a protease (trypsin) to disperse the cells, which were subjected to a cell sorter to obtain GFP positive cells. A neural stem cell culture medium (Neurobasal medium +5% B27 supplement, 20 ng/ml bFGF, 20 ng/ml EGF) was combined with a E18 mouse fetal brain tissue and cultured overnight for conditioning, thereafter the cells were removed and then 5 μg/ml of BrdU was added and the GFP positive cells taken out by the cell sorter were cultured for 2 to 7 days and then fixed. As a result, a part of the GFP positive GABAergic neuron progenitors was confirmed to uptake BrdU in a conditioned neural stem cell culture medium to undergo a cell division (FIG. 9). When the GFP positive cells were cultured in a neural stem cell culture medium which had not been conditioned with the fetal brain tissue, the image as of FIG. 9 was not obtained.
The proliferation may be successful in the neural stem cell culture medium supplemented with essential proliferation factors, thus establishing an essential proliferation factor detection system.

On to microperoxidase, for which, in data set [1], the “distribution from the cistern via the ventricles to the lateral ventricle and into the brain parenchyma” value is given as “migrated from the surface of the lateral ventricle to the brain parenchyma”; the “permeation from the subarachnoid cavity through the pia matter into the brain parenchyma” value is recorded as “permeated from the pia matter into the brain parenchyma”.

B1: Activin A (protein, UniProt P08476 311-426, looked up)
Inhibin beta A chain: GLECDGKVNICCKKQFFVSFKDIGWNDWIIAPSGYHANYCEGECPSHIAGTSGSSLSFHSTVINHYRMRGHSPFANLKSCCVPTKLRPMSMLYYDDGQNIIKKDIQNMIVEECGCS
modifications: Inhibin beta A chain
For B1, in data set [2], the “EdU positive cells (considered pia progenitors) in the pia matter on the infusion side” value was “a large number” and the “number of GFP/EdU double-stained inhibitory neurons in the infused hemisphere compared with the opposite hemisphere” value was “significantly larger number”. In data set [3], the “uptake of BrdU into the DNA (increase in the DNA amount associated with cell division)” value is recorded as “increase in the DNA amount associated with the cell division was evident”.

Source of the values: US20130236430A1, “PROLIFERATION, SEPARATION AND TRANSPLANTATION OF INHIBITORY NEURON PROGENITORS AND PROLIFERATION PROMOTING SUBSTANCES FOR THE PROGENITORS” (priority 2010, published 2013).
